Target: T1, HLA A*024 (human)
T1 construct: also called HLA A*024 alleles; HLA-A*24
Assay: HLA immunoprecipitation from tumour tissue, LC-MS (Example 1)

binding result: binds
Binder: LYQILQGIVF [CDC2-001]

Reference: patent US20130045191A1 (IMMATICS BIOTECHNOLOGIES, published 2013)
